# Literature values as cited in patent publication EP3906935A1, “PEPTIDES FOR PREVENTING OR TREATING VIRAL INFECTIONS” (SORBONNE UNIVERSITE, priority 2020, dated 2021).
# Details: N- and C-protected peptide; experimental data reported by Zhou et al.
substance,measurement,value
"Ac-EAEKAAKEAEKAAKEAEK-NH2 [SEQ ID NO: 146, peptide of eighteen residues with N- and C-protected extremities previously built by Zhou et al]",content of amphipathic helical structure in solution,65%
